Tested on: K4 kissing-loop RNA reporter
Assay: apparent KD of K4 kissing-loop reporter; higher = weaker reporter binding
Conditions: Eterna round: R107
Procedure: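 RNA-MaP round R107: designed RNA switches with theophylline, tryptophan, arginine or FMN aptamers are transcribed on-chip within common flanks. They are titrated with a labelled K4 kissing-loop RNA reporter in RNA-MaP buffer (100 mM Tris pH 7.5, 80 mM KCl, 4 mM MgCl2), without ligand or with the indicated ligand. Median apparent KD per design.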

[1] = input ligand: theophylline 20 uM
[2] = input ligand: tryptophan 2.4 mM
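Also: bound reporter read as fluorescence of individual clusters on recovered sequencing chips by microscopy, with normalized cluster intensities fitted with a binding model.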

| Sequence | apparent KD of K4 kissing-loop reporter (input ligand: FMN 200 uM) [µM] | apparent KD of K4 kissing-loop reporter (input ligand: arginine 13.2 mM) [µM] | apparent KD of K4 kissing-loop reporter (input ligand: none) [µM] | apparent KD of K4 kissing-loop reporter [1] [µM] | apparent KD of K4 kissing-loop reporter [2] [µM] |
| --- | --- | --- | --- | --- | --- |
| AAAAUAAAUCAGUGAUGUUGGUGUCCAGAUACCAGCGACGAAAGUCGCCCUUGGCAGCUGUGGACGUACAAAAUAAGUACGUCCU [MatMod 22 - Jieux - Same State - Theophylline A] | 0.61 | 0.316 | 0.611 | 0.335 | 0.465 |
| CGCAGUGAUGUUGCGAGUAGAUACAGGGAAGGAGCGCCGUAGUAGGCAGGUAGGUCGCCCACGCAGUGAUGUUGCGUCAUAGGGU [Exclusion Arginine A GF 5] | 0.104 | 0.0918 | 0.0971 | 0.116 | 0.0876 |
| GGGCAUGUUAAAGGAUAUAGCAGGUGAUACAAGAAAGUGAGUGAUGUUUAUGUAGAUGAUGAUAUGUUAGAAGGUUAACAAAACC [abcdefghijklm] | 0.597 | 0.475 | 0.62 | 0.529 | 0.374 |
| UGUCAUUGGUCUGAUACCAGAAGAUAUUCUGGAGUGAUGUUCCAAGUACGACAAAGUCGCUUCCCUUGGCAGCAGACCGAUGACU [TheoBS 20 #SwitchBubble 13 #StaticStem] | 0.471 | 0.195 | 0.617 | 0.501 | 0.69 |
| GCCGUACGCAUGGAUACCAGACAACCAUUCUAAAUUUUGUGUCCGGUAGUGAUGUUACCUGUCCCUUGGCAGCCAUGCGUACGGC | 0.306 | 0.261 | 0.319 | 0.317 | 0.338 |
| AAAAUAAACCAGUGAUGUUGGUGUCCAGAUACCAGCGAUAAUAAUCGCCCUUGGCAGCUGCGGACGUACAAAAUAAGUACGUCCU [MatMod 11 - Jieux - Same State - Theophylline A] | 0.482 | 0.351 | 0.513 | 0.294 | 0.408 |
| AAACGUUGGUCUGAUACCAGCUUGAUCGGUAAACGAUCUACUGGAGUGAUGUUCCUAAAUAGCCCUUGGCAGCAGACCGACGAAA [MAT - Same State Theophlline B - Mod of Eli - D7] | 0.195 | 0.163 | 0.173 | 0.118 | 0.17 |
| CAUAUACAAGUGAUGUUUGUACUAACCGAAGGAGCGUCGUUGAAGACAGGUAGGUCGCGGUUUAAGUUAGAUUAUAUAAUUCCAC [JR_Nu_SSArginiA_Sub027] | 0.705 | 0.535 | 0.892 | 0.715 | 0.509 |
| UGUAUGUGUCAGCGAGUGAUGUUCGACGAUACCAGACUCGAUAGAGUCCCUUGGCAGCGUAAUGCAUGCCAAACUGGCACAUACU [#SwitchBubble 13 #K4Early] | 0.657 | 0.532 | 0.682 | 0.594 | 0.6 |
| AGAGUUAAUUAGUCUUUUUUUACAUUAAGUCAGGAUAUCGUAUAUUCGAGAAGGGACACAUGCUAGUGAUGUUAGCUAUUUCUCA [JR_Nu_ExcFMNA_Sub019] | 0.0397 | 0.0796 | 0.0475 | 0.0717 | 0.0444 |
| GUUACGCAUGGAAGGAGCGCAGGCUCAACAAAUAGCUCAGUGAUGUUGAGCAUAUUAAAACUGCAGGUAGGUCGCCAUGUGUAAC [Ex Arginine B K4 23] | 0.651 | 0.547 | 0.657 | 0.671 | 0.588 |
| GAACGGCGGGCGGCCGCCACUGGUAUACGAGUGAUGUUCGGAUAUACGUGAUGUAAGGUAAUUAUCAGGACCGGGUCAGAGCCGG [#16 K4 Tryptophan B Same State] | 0.394 | 0.183 | 0.303 | 0.341 | 0.167 |
| GCGUUAGUACUCGAUACCAGACCUCUAGUAGUGAUGUUGCUUGGCGAAGGCCUCGAACGAGUCCCUUGGCAGCGAGGAAAGAGGA [theeternabot_sameState_KL_Theo_B_4] | 0.506 | 0.387 | 0.584 | 0.376 | 0.45 |
| CCACCAAGCACGGCCGCCACUAAAUCUGCAAGUAACCUAAAGUGAUGUUUUAUCUUGCGUCAGACUAGGACCGGGUGUCAAGUUA [theeternabot_sameState_KL_Trp_B_45] | 0.42 | 0.408 | 0.387 | 0.704 | 0.755 |
| AUUCAGAUCUGAAGGAGCGCGUUGACAUAUUGCUUCAUUGAGCAGUGAUGUUGCUCAGUAACGCAGGUAGGUCGCAGAUCUGGCC [Arg B Ex t7a] | 0.113 | 0.11 | 0.099 | 0.0923 | 0.104 |
| AGUCGCAGUGAUGUUGCGAUUCCGUUGAGGGAGGAUAUUGGUAAUACAAGAAGGCCCGGCUACGGGAGAUGUUAGCAAUAGGGCC [Exclusion FMN A GF20] | 0.092 | 0.0945 | 0.063 | 0.065 | 0.0639 |
| GACGGGCAGUGAUGUUGCCGGUCUCUUGGACGAGGACCGGUACGGCCGCCACUCGAUCUGAUGCGAGAAUUGUAUCUUUUAAUAA [Tegesosoat] | 0.25 | 0.177 | 0.242 | 0.346 | 0.347 |
| GUUGCAGCCCGUGAUACCAGCAUCGGUCGCCGGGUCCAGUGAUGUUGGGCUUGCGUUCUAUGCCCUUGGCAGCGCGGCCUGACAG [Qulaanar] | 0.415 | 0.104 | 0.174 | 0.393 | 0.415 |
| GGGCGUUACGGAGUGAUGUUCCGUAGCGAUACCAGCCAUUGCGAUGGCCCUUGGCAGCGCUAUAAGCAUAGAAUUGUAGCGCUUA [Theo A Ex t7b] | 0.109 | 0.0941 | 0.108 | 0.102 | 0.105 |
| GUAGGAUGAGGAGGAGGAUGAAUUACUGAAGGAGCGCAUAGAAAUGCAGGUAGGUCGCGGUAAAGAAGUAUAGUGAUGUUAUAUA [SSArgA.F] | 0.421 | 0.42 | 0.448 | 0.483 | 0.292 |
| UAUCUUUGCUGAAGGAGCGAGCAUGUUGGAGUGAUGUUCCGAGCGAGUGAUGUUCGCAUAGCUCAGGUAGGUCGCAGUGGGAGGA [Same State Arginie B GF 16] | 0.129 | 0.111 | 0.147 | 0.164 | 0.135 |

| Sequence | apparent KD of K4 kissing-loop reporter (input ligand: FMN 200 uM) [µM] | apparent KD of K4 kissing-loop reporter (input ligand: arginine 13.2 mM) [µM] | apparent KD of K4 kissing-loop reporter (input ligand: none) [µM] | apparent KD of K4 kissing-loop reporter [1] [µM] | apparent KD of K4 kissing-loop reporter [2] [µM] |
| --- | --- | --- | --- | --- | --- |
| AGUAGGAAACUACAAUCCUCUCUUACUGAAGGAGCGCGUGAAAACGCAGGUAGGUCGCAGGAUUUGAGAGUGAUGUUCUCAUUAA [Ex Arginine A K4 16] | 0.201 | 0.294 | 0.231 | 0.277 | 0.174 |
| GAGGUACAGGCGGCCGCCACUAGUGAUGUUAGUGAUAGAAGAUAUAGUAAAUAUCGGCAUUUAGAUAGGACCGGGCCUGGUGGUG [ffdfcmullin] | 0.296 | 0.242 | 0.271 | 0.286 | 0.275 |
| UAUUUAAUUUUUAAUUUUUAAAUUGCUGAUACCAGAGCCAAUUGGCUCCCUUGGCAGCGGAUCGAGUGAUGUUCGUAUAAUUUAA [AK1 SS Theophylline A] | 0.0305 | 0.0664 | 0.035 | 0.0622 | 0.0336 |
| UUACGGUCCUCGGCCGCCACUCAUAGUGAUGUUAUGCUGCCUGAAGGCACCGGACCUGGAUAUCAGAGGACCGGGAGGCCAUUCG [theeternabot_exclusion_KL_Trp_B_6] | 0.793 | 0.59 | 0.81 | 0.56 | 0.544 |
| AAAACGCUGUGAAUAACACAGCGAAAUUCGCGAGGACCGGUACGGCCGCCACUCGCUAACUGCGAGUGAUGUUCGAUAAUAAAAU [Mat - Mod of OpenEnded 3 - D3] | 0.166 | 0.0903 | 0.17 | 0.161 | 0.104 |
| AGUAUUGAGUCGGCCGCCACUGGUUUAAUGAGUGUCAAUUCUGGAUCAAAGUGAUGUUUUGGAGCUAGGACCGGGACCAUUGUUA [#07 K4 Tryptophan B Exclusion] | 0.446 | 0.36 | 0.433 | 0.36 | 0.479 |
| UGAUACCAGACGGCCGCCACUCCCGUAAGUCAAAGACUUACGAAGAGAGUUAUCCAGUGAUGUUGGAGGACCGGGUCUGGUAUCU [FiskerMod 14 - Jieux - Exclusion - Tryptophan B] | 0.21 | 0.199 | 0.192 | 0.199 | 0.261 |
| AGAGUUAUAUGAGGAUAUGAGAUAGUUAAUGAGUGAGUUAUAGUGUAGUUUGGUUAGUGAUGUUAUUUAGAAGGCGUGAGUGAUG [reefmullin] | 0.133 | 0.0765 | 0.115 | 0.1 | 0.0831 |
| CUGGUGCUGAUGCGGUGGCCGGUGGUCGUGCGAGGACCGGUACGGCCGCCACUCGCAUGAGUGAUGUUCAUGUGUCGUCGUCGUC [whbob_EX_Tryp_A_t1] | 0.212 | 0.134 | 0.181 | 0.176 | 0.217 |
| UCUGAAGGUGGAGGAUAUUGAUUGAAUCUUGGUCAGGAGUGAUGUUCCGGGAAGCCUUGGAUUCAUCGAGAAGGCCAAGGAUAGU [#10 K4 FMN B Same State] | 0.144 | 0.259 | 0.243 | 0.306 | 0.225 |
| AAGCAUUGGUCUGAUACCAGUUGAUGACGAAUACGUCAACUGGAGUGAUGUUCCUAAAACAACCCUUGGCAGCAGACCGAUGCAA [MAT - Same State Theophlline B - Mod of Eli - D2] | 0.761 | 0.704 | 0.835 | 0.75 | 0.838 |
| GGGAAGAAGGCGGCCGCCACUGCAGAAGAGACAGAGAGGGUAGAAGAGGAGUGAUGUUCCAAGAACAGGACCGGGCCAAGAAGGG [whbob_SS_Tryp_B_t30] | 0.226 | 0.172 | 0.226 | 0.237 | 0.137 |
| GGUAGCAUGGCGGCCGCCACUUCAAUUGGAGUGAUGUUCCAAGGCAUCGCGAAAGCGAUGCCAGGAAGGACCGGGCCAUGCUACC | 0.271 | 0.224 | 0.306 | 0.222 | 0.112 |
| UACCUGCUGUCAGGAUAUGAGUGCAGUGAUGUUGCACUCAACGUAACCAUCUUGAAAUACAAACACUCAGAAGGGACGCACGAAG [Isattema] | 0.183 | 0.0959 | 0.14 | 0.167 | 0.191 |
| AUAGACUUGCAGUGAUGUUGCAAGUGAGACUAGGAUAUCAGGAAGCUGAGAAGGAGUCAUCUCCUUCAGACAUCACUAUGAAGGA [whbob_SS_FMNA__2th180] | 0.27 | 0.18 | 0.251 | 0.204 | 0.221 |
| AGCUCAGAGUGACUCGAUAAGAGUCACAAACGAGGACCGGUACGGCCGCCACUCGAAAUAAUGGGAGUGAUGUUCUCACUGAGCA [#SwitchBubble 3 #StaticStem #K4Late] | 1.03 | 0.719 | 1.19 | 0.796 | 0.384 |
| UGAUACCAGACGGCCGCCACUCCCGCAGGUCAAAGACCUGCGAAGAAGGUUCUUUAGUGAUGUUGGAGGACCGGGUCUGGUAUCU [FiskerMod 21 - Jieux - Exclusion - Tryptophan B] | 0.735 | 0.312 | 0.744 | 0.417 | 0.523 |
| AGUGGUGUAUCUUUUAAGAGUGAUGUUUUUCGAGGACCGGUACGGCCGCCACUCGAGUGAUGAGUGCGUCGUUGUGGUGAUUAGU [#14 K4 Tryptophan A Exclusion] | 0.816 | 0.53 | 0.826 | 0.688 | 0.262 |
| AAGGCAGUUCGAGGAUAUCACAUACACUCCUUGAAUCAAGGAGUGAUGUUCCUUGAAGUGUAUGCAUGAGAAGGCGAAUUGCCUU [FMN B SS t5] | 0.113 | 0.103 | 0.109 | 0.103 | 0.101 |
| AGAUACUUUAUCGCUAGAGGCAUUGCAGAUACCAGCCUAUCUAGAGGCCCUUGGCAGCUGGAGUGAUGUUUCGGCUUAGCUAAAG [theeternabot_exclusion_KL_Theo_A_32] | 0.402 | 0.317 | 0.323 | 0.348 | 0.393 |
| UUUGGUUUCUCGGCCGCCACUCGUUGUCUAUGGGCUUCAGGGAUAUAGUGAUGUUAUGUAUAGAAGAGGACCGGGAGAAGGUUUU [ExTryptoB.Dv] | 0.427 | 0.0779 | 0.683 | 0.0423 | 0.161 |

From the supplement of paper PMC9170038
